Reference: patent US20230338424A1 (LENTIGEN TECHNOLOGY, published 2023)

T1: recombinant human CD123-Fc (human, UniProt P26951 19-305, limits assumed)
T1 construct: Treated as one molecule; also called CD123-Fc peptide (Novoprotein); recombinant IL3R-alpha Fc-tagged; not shown: Fc tag
T1 sequence (looked up): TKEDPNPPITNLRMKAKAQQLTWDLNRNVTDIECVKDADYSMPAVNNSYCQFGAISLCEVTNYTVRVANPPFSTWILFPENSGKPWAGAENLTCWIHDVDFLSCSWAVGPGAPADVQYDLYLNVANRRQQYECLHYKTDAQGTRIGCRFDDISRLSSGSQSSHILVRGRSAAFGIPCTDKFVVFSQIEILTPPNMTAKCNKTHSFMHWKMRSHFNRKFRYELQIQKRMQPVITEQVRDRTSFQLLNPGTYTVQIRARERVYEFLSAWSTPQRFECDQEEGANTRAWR

B1: CAR D0134 CD123 MB44-H01 CD8 BBz (other)
chain: QVQLVQSGAEVKKPGSSVKVSCKASGGTFSSYAISWVRQAPGQGLEWMGGIIPIFGTANYAQRFQGRVTITADESTSTAYMELSSLRSEDTAVYYCARGLGTSYYYYYMDVWGKGTTVTVSSGGGGSGGGGSGGGGSQSVLTQPPSASGSPGQSVTISCTGTSSDVGGYNYVSWYQQHPGKAPKLMIYEVSNRPSGVSNRFSGSKSGNTASLTISGLQAEDEADYYCSSYTSSSTPVVFGGGTKLTVLAAATTTPAPRPPTPAPTIASQPLSLRPEACRPAAGGAVHTRGLDFACDIYIWAPLAGTCGVLLLSLVITLYCKRGRKKLLYIFKQPFMRPVQTTQEEDGCSCRFPEEEEGGCELRVKFSRSADAPAYQQGQNQLYNELNLGRREEYDVLDKRRGRDPEMGGKPRRKNPQEGLYNELQKDKMAEAYSEIGMKGERRRGKGHDGLYQGLSTATKDTYDALHMQALPPR
notes: Chimeric antigen receptor on transduced human primary T cells; also called EF-1a-CD123 MB44 -H01CD8 BBz
B2: CAR D0130 CD123 MB40-H08 CD8 BBz (other)
chain: QVQLVQSGAEVKKPGSSVKVSCKASGGTFSSYAISWVRQAPGQGLEWMGGIIPIFGTANYAQKFQGRVTITADESTSTAYMELSSLRSEDTAVYYCARNEWYSYYYYYMGVWGKGTTVTVSSGGGGSGGGGSGGGGSQSALTQPASVSGSPGQSITISCTGTSSDVGGYNYVSWYQQHPGKAPKLMIYEVSNRPSGVSNRFSGSKSGNTASLTISGLQAEDEADYYCSSYTSSSTLVVFGGGTKLTVLAAATTTPAPRPPTPAPTIASQPLSLRPEACRPAAGGAVHTRGLDFACDIYIWAPLAGTCGVLLLSLVITLYCKRGRKKLLYIFKQPFMRPVQTTQEEDGCSCRFPEEEEGGCELRVKFSRSADAPAYQQGQNQLYNELNLGRREEYDVLDKRRGRDPEMGGKPRRKNPQEGLYNELQKDKMAEAYSEIGMKGERRRGKGHDGLYQGLSTATKDTYDALHMQALPPR
notes: Chimeric antigen receptor on transduced human primary T cells; also called EF-1a-CD123 MB40-H08 CD8 BBz
B3: CAR D0131 CD123 MB42-D03 CD8 BBz (other)
chain: QVQLVQSGAEVKKPGASVKVSCKASGYTFTSYGISWVRQAPGQGLEWMGWISAYNGNTNYAQKLQGRVTMTTDTSTSTAYMELRSLRSDDTAVYYCARGAYYDFWSSYSWFDPWGQGTLVTVSSGGGGSGGGGSGGGGSSYVLTQPPSVSVAPGKTARITCGGNSIGSKSVQWYQQKPGQAPVLVIYDDSDRPSGIPERFSGSNSGNTATLTISRVEAGDEADYYCQVWDSSSDVVFGGGTKLTVLAAATTTPAPRPPTPAPTIASQPLSLRPEACRPAAGGAVHTRGLDFACDIYIWAPLAGTCGVLLLSLVITLYCKRGRKKLLYIFKQPFMRPVQTTQEEDGCSCRFPEEEEGGCELRVKFSRSADAPAYQQGQNQLYNELNLGRREEYDVLDKRRGRDPEMGGKPRRKNPQEGLYNELQKDKMAEAYSEIGMKGERRRGKGHDGLYQGLSTATKDTYDALHMQALPPR
notes: Chimeric antigen receptor on transduced human primary T cells; also called EF-1a-CD123 MB42-D03 CD8 BBz; CAR123 D0131
B4: CAR D0132 CD123 MB42-E02 CD8 BBz (other)
chain: QVQLVQSGAEVKKPGASVKVSCKASGYTFTSYGISWVRQAPGQGLEWMGWISAYNGNTNYAQKLQGRVTMTTDTSTSTAYMELRSLRSDDTAVYYCARGAYYDFWSGYSWFDPWGQGTLVTVSSGGGGSGGGGSGGGGSQSVLTQPPSVSVAPGQTARIPCGGNNIGSKGVHWYQQKSGQAPVMVVYDDSDRPSGIPERFSGSNSGNTATLTISRVEAGDEADYYCQVWDSSGDLVLFGGGTKLTVLAAATTTPAPRPPTPAPTIASQPLSLRPEACRPAAGGAVHTRGLDFACDIYIWAPLAGTCGVLLLSLVITLYCKRGRKKLLYIFKQPFMRPVQTTQEEDGCSCRFPEEEEGGCELRVKFSRSADAPAYQQGQNQLYNELNLGRREEYDVLDKRRGRDPEMGGKPRRKNPQEGLYNELQKDKMAEAYSEIGMKGERRRGKGHDGLYQGLSTATKDTYDALHMQALPPR
notes: Chimeric antigen receptor on transduced human primary T cells; also called EF-1a-CD123 MB42-E02 CD8 BBz
B5: CAR D0133 CD123 MB42-E12 CD8 BBz (other)
chain: QVQLVQSGAEVKKPGASVKVSCKASGYTFTSYGISWVRQAPGQGLEWMGWISAYNGNTNYAQKLQGRVTMTTDTSTSTAYMELRSLRSDDTAVYYCARGAYYDFWSSYSWFDPWGQGTLVTVSSGGGGSGGGGSGGGGSSYVLTQPPSVSVAPGKTARITCGGNNIGSKSVHWYQQKPGQAPVLVVYDDSDRPSGIPERFSGSNSGNTATLTISRVEAGDEADYYCQVWDSSSDHVVFGGGTKLTVLAAATTTPAPRPPTPAPTIASQPLSLRPEACRPAAGGAVHTRGLDFACDIYIWAPLAGTCGVLLLSLVITLYCKRGRKKLLYIFKQPFMRPVQTTQEEDGCSCRFPEEEEGGCELRVKFSRSADAPAYQQGQNQLYNELNLGRREEYDVLDKRRGRDPEMGGKPRRKNPQEGLYNELQKDKMAEAYSEIGMKGERRRGKGHDGLYQGLSTATKDTYDALHMQALPPR
notes: Chimeric antigen receptor on transduced human primary T cells; also called EF-1a-CD123 MB42-E12 CD8 BBz
B6: CAR LTG2078 CD123 M12306 CD8 BBz (other)
chain: EVQLVQSGSELKKPGASVKVSCKASGGTFSSYAISWVRQAPGQGLEWMGGIIPIFGTANYAQKFQGRVTITADESTSTAYMELSSLRSEDTAVYYCASTARRGWDTAGPLDYWGQGTLVTVSSGGGGSGGGGSGGGGSDIQMTQSPSSLSASVGDRVTIACRASQTISRYLNWYQQKPGKAPKLLIYAASSLQSGVSSRFSGSGSGTEFTLTISSLQPEDFATYFCQQTYSPPITFGQGTRLEIKAAATTTPAPRPPTPAPTIASQPLSLRPEACRPAAGGAVHTRGLDFACDIYIWAPLAGTCGVLLLSLVITLYCKRGRKKLLYIFKQPFMRPVQTTQEEDGCSCRFPEEEEGGCELRVKFSRSADAPAYQQGQNQLYNELNLGRREEYDVLDKRRGRDPEMGGKPRRKNPQEGLYNELQKDKMAEAYSEIGMKGERRRGKGHDGLYQGLSTATKDTYDALHMQALPPR
notes: Control chimeric antigen receptor on transduced human primary T cells; Leader (residues 1-22) left out; also called EF-1a CD123 CD8 BBz

Molecular target: T1, recombinant human CD123-Fc
Experiment: flow cytometry, CAR T cells stained with recombinant IL3R-alpha Fc-tagged, anti-Fc AF647
Protocol: Half million CAR T cells were washed two times in cold AutoMACS buffer supplemented with 0.5% bovine serum albumin (Miltenyi Biotec, Bergisch Gladbach, Germany) and stained with 2.5 ug/ml CD123-Fc peptide (Novoprotein, Summit, NJ), followed by anti Fc-AF647 conjugate (Jackson ImmunoResearch, West Grove, PA). The 7-Aminoactinomycin D staining (7-AAD, BD Biosciences, San Jose, CA) was added to exclude dead cells. Non-transduced cells (UTD) were used as a negative control. Cells were washed twice with AutoMACS buffer supplemented with 0.5% bovine serum albumin, resuspended in 200 ul staining buffer and acquired by flow cytometry. Flow cytometric analysis was performed on a MACSQuant® 10 Analyzer (Miltenyi Biotec), and data plots were generated using FlowJo software (Ashland, OR).
Lentiviral vectors encoding the CD123 CAR constructs were used for CAR transduction into human primary T cells at multiplicity of infection (MOI) of 40. CAR surface expression of transduced T cells by flow cytometry using recombinant IL3R-alpha Fc-tagged, followed by staining with anti-Fc Alexa Flour 647.

Binder	binding result
B1	binds
B2	binds
B3	binds
B4	binds
B5	binds
B6	binds
